Here are results for one protein from publication doi:10.1101/209643 (bioRxiv, 2017).

This data set deals with the molecule itself. Briefly: TIRF microscopy of filament polymerisation.

B1: Double mutant septin complex (Cdc10, Cdc3, Cdc12 T75A, Cdc11 D65T-GFP) (complex)
chain 1: MSAATATAAPVPPPVGISNLPNQRYKIVNEEGGTFTVMLCGESGLGKTTFINTLFQTVLKRADGQQHRQEPIRKAVEIDITRALLEEKHFELRVNVIDTPGFGDNVNNNKAWQPLVDFIDDQHDSYMRQEQQPYRTKKFDLRVHAVLYFIRPTGHGLKPIDIETMKRLSTRANLIPVIAKADTLTAQELQQFKSRIRQVIEAQEIRIFTPPLDADSKEDAKSGSNPDSAAVEHARQLIEAMPFAIVGSEKKFDNGQGTQVVARKYPWGLVEIENDSHCDFRKLRALLLRTYLLDLISTTQEMHYETYRRLRLEGHENTGEGNEDFTLPAIAPARKLSHNPRYKEEENALKKYFTDQVKAEEQRFRQWEQNIVNERIRLNGDLEEIQGKVKKLEEQVKSLQVKKSHLK
chain 2: MDPLSSVQPASYVGFDTITNQIEHRLLKKGFQFNIMVVGQSGLGKSTLINTLFASHLIDSATGDDISALPVTKTTEMKISTHTLVEDRVRLNINVIDTPGFGDFIDNSKAWEPIVKYIKEQHSQYLRKELTAQRERFITDTRVHAILYFLQPNGKELSRLDVEALKRLTEIANVIPVIGKSDTLTLDERTEFRELIQNEFEKYNFKIYPYDSEELTDEELELNRSVRSIIPFAVVGSENEIEINGETFRGRKTRWSAINVEDINQCDFVYLREFLIRTHLQDLIETTSYIHYEGFRARQLIALKENANSRSSAHMSSNAIQR
chain 3: MSLKEEQVSIKQDPEQEERQHDQFNDVQIKQESQDHDGVDSQYTNGTQNDDSERFEAAESDVKVEPGLGMGITSSQSEKGQVLPDQPEIKFIRRQINGYVGFANLPKQWHRRSIKNGFSFNLLCVGPDGIGKTTLMKTLFNNDDIEANLVKDYEEELANDQEEEEGQGEGHENQSQEQRHKVKIKSYESVIEENGVKLNLNVIDTEGFGDFLNNDQKSWDPIIKEIDSRFDQYLDAENKINRHSINDKRIHACLYFIEPTGHYLKPLDLKFMQSVYEKCNLIPVIAKSDILTDEEILSFKKTIMNQLIQSNIELFKPPIYSNDDAENSHLSERLFSSLPYAVIGSNDIVENYSGNQVRGRSYPWGVIEVDNDNHSDFNLLKNLLIKQFMEELKERTSKILYENYRSSKLAKLGIKQDNSVFKEFDPISKQQEEKTLHEAKLAKLEIEMKTVFQQKVSEKEKKLQKSETELFARHKEMKEKLTKQLKALEDKKKQLELSINSASPNVNHSPVPTKKKGFLR
chain 4: MSGIIDASSALRKRKHLKRGITFTVMIVGQSGSGRSTFINTLCGQQVVDTSTTILLPTDTSTEITLQLREETVELEDDEGVKIQLNIIDTPGFGDSLDNSPSFEIISDYIRHQYDEILLEESRVRRNPRFKDGRVHCCLYLINPTGHGLKEIDVEFIRQLGSLVNIIPVISKSDSLTRDELKLNKKLIMEDIDRWNLPIYNFPFDEDEISDEDYETNMYLRTLLPFAIIGSNEVYEMGGDVGTIRGRKYPWGILDVEDSSISDFVILRNALLISHLHDLKNYTHEILYERYRTEALSGESVAAESIRPNLTKLNGSSSSSTTTRRNTNPFKQSNNINNDVLNPASDMHGQSTGENNETYMTREEQIRLEEERLKAFEERVQQELLLKRQELLQREKELREIEARLEKEAKIKQEE
As to B1, the binding result is “binds”.
